Data taken from the DeepSol protein solubility set.

experiment: soluble on expression in E. coli; label from the status in PepcDB or PDB records

Sequence	soluble on expression in E. coli
MGSDKIHHHHHHMKMEELFKKHKIVAVLRANSVEEAKEKALAVFEGGVHLIEITFTVPDADTVIKELSFLKEKGAIIGAGTVTSVEQCRKAVESGAEFIVSPHLDEEISQFCKEKGVFYMPGVMTPTELVKAMKLGHTILKLFPGEVVGPQFVKAMKGPFPNVKFVPTGGVNLDNVCEWFKAGVLAVGVGSALVKGTPDEVREKAKAFVEKIRGCTE	soluble
MSLTTTPANVLASVDLGSNSFRLQICENNNGQLKVIDSFKQMVRFAAGLDEQKNLSAASQEQALDCLAKFGERLRGFRPEQVRAVATNTFRVAKNIADFLPKAEAALGFPIEIIAGREEARLIYTGVIHTLPPGGGKMLVIDIGGGSTEFVIGSTLNPDITESLPLGCVTYSLRFFQNKITAKDFQSAISAARNEIQRISKNMRREGWDFAVGTSGSAKSIRDVLAAEMPQEADITYKGMRALAERIIEAGSVKKAKFENLKPERIEVFAGGLAVMMAAFEEMKLDRMTVTEAALRDGVFYDLIGRGLNEDMRGQTVAEFQHRYHVSLNQAKRTAETAQTFMDSLCHAKNVTVQELALWQQYLGRAAALHEIGLDIAHTGYHKHSAYILENADMPGFSRKEQTILAQLVIGHRGDMKKMSGIIGTNEMLWYAVLSLRLAALFCRSRQDLSFPKNMQLRTDTESCGFILRIDREWLERHPLIADALEYESVQWQKINMPFKVEAVEGHHHHHH	soluble
MEESDQTVLLPNVENEIGSFYHDMPDEKLLRHIKAIFDEASLRPSLTKNVPSTSSQVTEELNKVEIRDPKHEMQDEQYLSIFENPSGVQYNQADGSFSWNNRFHSDNSVQYINVLNNYGCEGADTLLNQSDSSDETDESIEERRTPRGNRQSRSNLTSKPSAKYWTKRGGDPIVNCSCSICGSKFSTIRCLLDHRHQEHSLKDMMMCGLCGKEFSKRTHIYLHLSQEYKVYHCDGCNTSFASKWHLEKHRCKENETIDDKKRRRTGRVNAEEIKVIKEEIQDEEFGGVVLSNENHEKSKEDRFQFACVLCGKKYQHYHWLLKHRTKCLETTDEIQEFKCNVCYRRYNSSFWFERHMEKCNSSTALPPALLDQTISCPNCHKKYQNEYWFDYHKKHCPDITPALSDVHLDVNSLRDRRPREGEISVVPDVNLFGIEPEREDDNDDDEDADATISSSSSSTGNLVNIPCSICGKFCVGVASLLHHRKQIHGLTAMLTCGVCTKKFNTLSSIRRHMSMEYSIFRCQQCGRNCIDRTTLDRHECFKPYKIRDKRLFNIQNISVLKCPDCRATFANLNVLSEHRKTCQYGNVFDNIQQPGSSSLRQHHRSDTNGAALQRKITSRVRLDSNTPEKWTCRDCHASFHNLQALCSHRHESHGKEMFQCNNCSETLPNYRALHDHNMMHCRNNRSTNETTTRRYSEEDINYDYMDNVQIFVVEESEIFIPIQPHFSRK	not soluble
MTSASAPSFNPGKGPGSAVGIALLGFGTVGTEVMRLMTEYGDELAHRIGGPLEVRGIAVSDISKPREGVAPELLTEDAFALIEREDVDIVVEVIGGIEYPREVVLAALKAGKSVVTANKALVAAHSAELADAAEAANVDLYFEAAVAGAIPVVGPLRRSLAGDQIQSVMGIVNGTTNFILDAMDSTGADYADSLAEATRLGYAEADPTADVEGHDAASKAAILASIAFHTRVTADDVYCEGISNISAADIEAAQQAGHTIKLLAICEKFTNKEGKSAISARVHPTLLPVSHPLASVNKSFNAIFVEAEAAGRLMFYGNGAGGAPTASAVLGDVVGAARNKVHGGRAPGESTYANLPIADFGETTTRYHLDMDVEDRVGVLAELASLFSEQGISLRTIRQEERDDDARLIVVTHSALESDLSRTVELLKAKPVVKAINSVIRLERD	not soluble
MAHHHHHHMSNDPKPTKPDPRVANNDVASDDGSDGKGDVAAPPAFLPTAGRVEVHPLVLLSLVDHYARMNTSAVQKKRVAGLLLGRYVRDSTGMQTLDINNSFAVPFDEDPQDAGVWFFDTNYAQEMFAMHKRVLPKVKVVGWYSSGPTIQPNDMLLHLLVADRFCLNPVYCVVNTDPNNKGVPVRAYTTVQGREGTRSLEFRNIPTHLGAEEAEEIGIEHLLRDLTDSTITTLSTQVQERELSLVHLCKVLQQIEEYLKDVGNAVMPISEDVLEVLQELISLQPEIYARRSSTEMIRHTNDEAIATFLAAIARCIGALHGVIMNRRKLARELQEIKDRRARAAETRLENEKMKIEEAAKEKDTNQA	not soluble
MGSDKIHHHHHHCTHKYKIEGTSSVNGLDGKMLYLKTLRDGEWTKLDSAEVVHGSFSMKGKIDSVQMTTLYMDDESVMPVVLESGKIVITISNTDLKAVGTPLNTALYDFIAKKNAMEESIGELERKETRMVMDGADLEEVHEQLLAEGDSLMKAMNQYVKTFISDNYENVLGPNVFIMLCSSLPYPIMTPQIDDIIKDAPYSFKSNKMVREFLTKAKENMQLIEEHQRMQQNVGSKK	not soluble
MVLPKKEFVLSHTFTDVSKMEKDISVFSPGEEHFNVSWNMSISCEGDHLGVFLHCHKSRGKETMWTIDTEHQFTLKTSSGKAYREDDNFNFQFSNAHSYGNGTTEFISWNKLIKDYLIDDVITVEAAVKIIKTTGISKKALKGFEKSNEEFSDVVLAVGDKEFFVLKQFLAYHSSYFKSLLLGKFAESDQKEVTLQDIDPTDFQNLLEVLYGEPAIDDETIDGILHLAHMYDMSVPLRKCEEFLINESEKSMKDQLKIAKQYQLEKLKKACLLKINTVDEIKAAVAGKLSDMDPTVVAALF	not soluble
GAMIRSRQPLLDALGVDLPDELLSLALTHRSYAYENGGLPTNERLEFLGDAVLGLTITDALFHRHPDRSEGDLAKLRASVVNTQALADVARRLCAEGLGVHVLLGRGEANTGGADKSSILADGMESLLGAIYLQHGMEKAREVILRLFGPLLDAAPTLGAGLDWKTSLQELTAARGLGAPSYLVTSTGPDHDKEFTAVVVVMDSEYGSGVGRSKKEAEQKAAAAAWKALEVLDNAMPGKTSA	soluble
MANVSLNKVDKQALVHQPNLLRECFALLVNAHYQTSPNDLLHLLRDDNSSVYLAMDKQNIIGVILTVEEGGLDDELIEAIQLGQRRPKGHLTPITIINQLGLVKVGKLITSRVMRIAVHPDLQGSGIGKRMLTLLEESVGAHVDYLSTSFGATDELIQFWQQAGYQSIRLGTMRDAASGCYSLLMVRQLANKSQ	not soluble
MIELKHVTFGYNKKQMVLQDINITIPDGENVGILGESGCGKSTLASLVLGLFKPVKGEIYLSDNAVLPIFQHPLTSFNPDWTIETSLKEALYYYRGLTDNTAQDQLLLQHLSTFELNAQLLTKLPSEVSGGQLQRFNVMRSLLAQPRVLICDEITSNLDVIAEQNVINILKAQTITNLNHFIVISHDLSVLQRLVNRIIVLKDGMIVDDFAIEELFNVDRHPYTKELVQAFSY	not soluble
MANSMATLSRRLYRSLLSNPRISQASMSFCTNNITSPEDSDFDELESPIEPKASDPVSRFSGEERVMEERPLENGLDSGIFKAILVGQVGQLPLQKKLKSGRTVTLFSVGTGGIRNNRRPLINEDPREYASRSAVQWHRVSVYPERLADLVLKNVEPGTVIYLEGNLETKIFTDPVTGLVRRIREVAIRRNGRVVFLGKAGDMQQPSSAELRGVGYY	soluble
MGSDKIHHHHHHMTNQIKIAVIGVGRWGVHLLRNFLAHPQVDVVAVVDPHPERLAAIKQQFNLDENVVLTTQWEDLKKVPGLTGVAIATPATTHYALIKDSLQQGYHVLAEKPLTLDPAECRELCQLAEQHHLILMVDHTYLFHPAVEQGQTVVQAGKLGDLRYGYATRTHLGPVRQDVDALWDLAIHDIAIFNAWLGQIPVKVQATGTVWLQGAGEQGSREAEGKKDTNFPLPQGLADLVWLTLTYPDGFQAYIHLCWLNPDKQRRLGIVGSLGSLIFDEMSRSSPLTLLHGEFEQQGNHFIPVNQKQVVLELEPGEPLGRVCSCFVDSILNNTPSEVSSGWVGTQLVEILAALTVSLEQGGQPVFLNNCSQV	not soluble
MAQSKHGLTKEMTMKYRMEGCVDGHKFVITGEGIGYPFKGKQAINLCVVEGGPLPFAEDILSAAFNYGNRVFTEYPQDIVDYFKNSCPAGYTWDRSFLFEDGAVCICNADITVSVEENCMYHESKFYGVNFPADGPVMKKMTDNWEPSCEKIIPVPKQGILKGDVSMYLLLKDGGRLRCQFDTVYKAKSVPRKMPDWHFIQHKLTREDRSDAKNQKWHLTEHAIASGSALP	soluble
